The results in this text go back to patent publication EP3505186B1, “NUCLEOPHILIC CATALYSTS FOR OXIME LINKAGE” (Takeda Pharmaceutical Company Limited, priority 2010, dated 2012).

Data set [1] in a line: Specific activity of the EPO conjugate: biological activity by methods known in the art and total protein (Bradford).
Another data set concerns FIX chromogenic activity. In words: Specific activity of the rFIX conjugate: FIX chromogenic (and clotting) activity and total protein. Type of data set: biochemical. As to the method:
The free rFIX was removed by means of anion exchange chromatography (AEC). The reaction mixture was diluted with 15 ml Buffer A (50 mM Hepes, 5 mM CaCl2, pH 7.5) and loaded onto a 20 ml HiPrep QFF 16/10 column (GE Healthcare, Fairfield, CT) pre-equilibrated with Buffer A. The column was then eluted with Buffer B (50 mM Hepes, 1 M NaCl, 5 mM CaCl2, pH 7.5). Free rFIX elutes at a conductivity between 12-25 mS/cm and the conjugate between 27-45 mS/cm. The conductivity of the conjugate containing fractions was subsequently raised to 190 mS/cm with Buffer C (50 mM Hepes, 5M NaCl, 5 mM CaCl2, pH 6.9) and loaded onto a 20 ml HiPrep Butyl FF 16/10 column (GE Healthcare, Fairfield, CT) pre-equilibrated with Buffer D (50 mM Hepes, 3 M NaCl, 5 mM CaCl2, pH 6.9). Free aminooxy-PSA reagent was washed out within 5 CV Buffer D. Subsequently the conjugate is eluted with 100 % Buffer E (50 mM Hepes, 5 mM CaCl2, pH 7.4). The conjugate containing fractions were concentrated by UF/DF using Vivaspin 15R 10 kD centrifugal filtrator. The final diafiltration step was performed against histidine buffer, pH 7.2 containing 150 mM NaCl and 5 mM CaCl2. The preparation was analytically characterized by measuring total protein (Bradford) and FIX chromogenic activity.
The free rFIX is removed by means of anion exchange chromatography (AEC). The reaction mixture is diluted with appropriate amounts of Buffer A (50 mM Hepes, 5 mM CaCl2, pH 7.5) to correct the solutions conductivity and pH prior to load onto a 20 ml HiPrep QFF 16/10 column (GE Healthcare, Fairfield, CT) pre-equilibrated with buffer A. Then the column is eluted with Buffer B (50 mM Hepes, 1 M NaCl, 5 mM CaCl2, pH 7.5). Free rFIX is eluted by a step gradient using 25 % of Buffer B, which results in a conductivity between 12-25 mS/cm in the obtained fraction and the conjugate using a step gradient of 50 % Buffer B, which results in a conductivity between between 27-45 mS/cm in the conjugate fraction. […] Free aminooxy-PSA reagent is washed out within 5 CV Buffer D. Subsequently, the conjugate is eluted with 100 % Buffer E (50 mM Hepes, 5 mM CaCl2, pH 7.4). The conjugate containing fractions are concentrated by UF/DF using a 10 kD membrane made of regenerated cellulose (88 cm2, cut-off 10 kD, Millipore). The final diafiltration step is performed against L-histidine buffer, pH 7.2 containing 150 mM NaCl and 5 mM CaCl2. The preparation is analytically characterized by measuring total protein (Bradford and BCA procedure) and FIX chromogenic- and clotting activity. For the PSA-rFIX conjugate a specific activity of > 50 % in comparison to native rFIX is determined.
The free rFIX was removed by means of anion exchange chromatography (AEC). […]

The nature of data set [2]: Specific activity of the interferon-gamma conjugate: biological activity by methods known in the art and total protein (Bradford). As to the method: (§1) The free Interferon-gamma is removed by means of cation exchange chromatography (CEC). The reaction mixture is diluted with 20 ml Buffer A (50 mM Hepes, pH 6.5) and loaded onto a 20 ml HiPrep SPFF 16/10 column (GE Healthcare, Fairfield, CT) pre-equilibrated with Buffer A. Then the column is eluted with Buffer B (50 mM Hepes, 1 M NaCl, pH 6.5). Free interferon-gamma is eluted by washing the column with 25 % Buffer B and the conjugate at 50 % Buffer B. The conductivity of the conjugate containing fractions is subsequently raised to -190 mS/cm with Buffer C (50 mM Hepes, 5 M NaCl, pH 6.9) and loaded onto a 20 ml HiPrep Butyl FF 16/10 column (GE Healthcare, Fairfield, CT) pre-equilibrated with Buffer D (50 mM Hepes, 3 M NaCl, pH 6.9). Free PSA-reagent is washed out within 5 CV Buffer D. Subsequently, the conjugate is eluted with 100 % Buffer E (50 mM Hepes, pH 6.9). The conjugate containing fractions are concentrated by UF/DF using a 10 kD membrane made of regenerated cellulose (88 cm2, cut-off 10 kD, Millipore). The final diafiltration step is performed against histidine buffer, pH 6.9 containing 150 mM NaCl. The preparation is analytically characterized by measuring total protein (Bradford) and biological activity according to methods known in the art. For the PSA-Interferon-gamma conjugate a specific activity of > 50 % in comparison to native Interferon-gamma is determined. The conjugate is additionally analytically characterized by Size Exclusion HPLC using a Agilent 1200 HPLC system equipped with a Shodex KW 803 column under conditions as previously described (Kolarich et al, Transfusion 2006;46:1959-77). It is shown that the preparation contains no free Interferon gamma.
as §1, with “free interferon gamma” for “free Interferon-gamma”, “10 kD /” for “10 kD,”, “the PSAinterferon-gamma” for “the PSA-Interferon-gamma”, “native interferon-gamma” for “native Interferon-gamma”, “free interferon-gamma.” for “free Interferon gamma.”
The free interferon gamma is removed by means of cation exchange chromatography (CEC). […]

For the molecule “PEG-EPO conjugate: EPO PEGylated with a linear 20 kD PEGylation reagent containing an aminooxy group, m-toluidine as catalyst”, the “specific activity in comparison to native EPO” value is listed as more than 50% in data set [1] (Reference Example 32 Method 1, alternative (oxidation, then m-toluidine and 20 kD aminooxy-PEG, 5-fold)); more than 50% in data set [1] (Reference Example 32 Method 3, alternative (simultaneous, 20 kD aminooxy-PEG, 5-fold)).
As for “PSA-EPO conjugate: erythropoietin polysialylated with 20 kD aminooxy-PSA reagent, m-toluidine as catalyst”, the “specific activity in comparison to native EPO” value in data set [1] (Reference Example 18 Method 1, alternative procedure (oxidation, then m-toluidine and 20 kD aminooxy-PSA, 5-fold)) was more than 50%; in data set [1] (Reference Example 18 Method 3, alternative procedure (simultaneous, 20 kD aminooxy-PSA, 5-fold)), more than 50%.
“PSA-rFIX conjugate: rFIX polysialylated via oxidized carbohydrate with 20 kD aminooxy-PSA reagent, m-toluidine as catalyst”: the “specific activity in comparison to native rFIX” value with FIX chromogenic activity (Reference Example 11 Method 1 (oxidation, UF/DF, then m-toluidine and 20 kD aminooxy-PSA), FIX chromogenic activity, Bradford) is listed as more than 50%; in the data set on FIX chromogenic activity (Reference Example 11 Method 2 (oxidation, UF/DF, then 10 mM m-toluidine and 20 kD aminooxy-PSA), FIX chromogenic- and clotting activity, Bradford and BCA), more than 50%; with FIX chromogenic activity (Reference Example 11 Method 3 (simultaneous periodate, m-toluidine, 20 kD aminooxy-PSA), FIX chromogenic activity, Bradford), more than 50%; in the data set with FIX chromogenic activity (Reference Example 11 Method 4 (simultaneous, 2 mg rFIX / ml), FIX chromogenic- and clotting activity, Bradford and BCA), more than 50%.

B1: PSA-Interferon-gamma conjugate: interferon-gamma polysialylated with 20 kD aminooxy-PSA reagent, m-toluidine as catalyst (conjugate, UniProt P01579 24-161, looked up)
Interferon gamma: QDPYVKEAENLKKYFNAGHSDVADNGTLFLGILKNWKEESDRKIMQSQIVSFYFKLFKNFKDDQSIQKSVETIKEDMNVKFFNSNKKKRDDFEKLTNYSVTDLNVQRKAIHELIQVMAELSPAAKTGKRKRSQMLFRG
modifications: polysialic acid 20 kD
notes: interferon-gamma polysialylated with 20 kD aminooxy-PSA reagent, m-toluidine as catalyst
Regarding B1, the “specific activity in comparison to native interferon-gamma” value was more than 50% in data set [2] (Reference Example 27 Method 1 (oxidation, then m-toluidine and 20 kD aminooxy-PSA, 5-fold)); more than 50% in data set [2] (Reference Example 27 Method 2 (simultaneous, 20 kD aminooxy-PSA, 5-fold)); more than 50% in data set [2] (Reference Example 27 Method 3 (simultaneous, 20 kD aminooxy-PSA, 5-fold)).

B2: PEG-interferon-gamma conjugate: interferon-gamma PEGylated with a linear 20 kD aminooxy PEGylation reagent, m-toluidine as catalyst (conjugate, UniProt P01579 24-161, looked up)
Interferon gamma: B1 Interferon gamma
modifications: PEG 20 kD
notes: interferon-gamma PEGylated with a linear 20 kD aminooxy PEGylation reagent, m-toluidine as catalyst
Take B2: the “specific activity in comparison to native Interferon gamma” value in data set [2] (Reference Example 41 Method 1 (oxidation, then m-toluidine and 20 kD aminooxy-PEG, 5-fold)) was more than 50%. In data set [2] (Reference Example 41 Method 3 (simultaneous, 20 kD aminooxy-PEG, 5-fold)), the “specific activity in comparison to native interferon-gamma” value is on record as more than 50%.
